Data reported in article PMC10584130, “Effects of HSP70 chaperones Ssa1 and Ssa2 on Ste5 scaffold and the mating mitogen-activated protein kinase (MAPK) pathway in Saccharomyces cerevisiae” (PLOS ONE, 2023).

Biological target: T1, Ste5-Myc9 (S. cerevisiae, UniProt P32917 1-917)
T1 construct: Ste5 MAPK scaffold protein of S. cerevisiae; source: S. cerevisiae (EY1775 ste5 bar1; EY3136/EY3141), expressed from plasmids (pSKM19 2μ; pSKM90), in whole cell extract; not shown: Myc9, C-terminal, kept
T1 sequence (looked up): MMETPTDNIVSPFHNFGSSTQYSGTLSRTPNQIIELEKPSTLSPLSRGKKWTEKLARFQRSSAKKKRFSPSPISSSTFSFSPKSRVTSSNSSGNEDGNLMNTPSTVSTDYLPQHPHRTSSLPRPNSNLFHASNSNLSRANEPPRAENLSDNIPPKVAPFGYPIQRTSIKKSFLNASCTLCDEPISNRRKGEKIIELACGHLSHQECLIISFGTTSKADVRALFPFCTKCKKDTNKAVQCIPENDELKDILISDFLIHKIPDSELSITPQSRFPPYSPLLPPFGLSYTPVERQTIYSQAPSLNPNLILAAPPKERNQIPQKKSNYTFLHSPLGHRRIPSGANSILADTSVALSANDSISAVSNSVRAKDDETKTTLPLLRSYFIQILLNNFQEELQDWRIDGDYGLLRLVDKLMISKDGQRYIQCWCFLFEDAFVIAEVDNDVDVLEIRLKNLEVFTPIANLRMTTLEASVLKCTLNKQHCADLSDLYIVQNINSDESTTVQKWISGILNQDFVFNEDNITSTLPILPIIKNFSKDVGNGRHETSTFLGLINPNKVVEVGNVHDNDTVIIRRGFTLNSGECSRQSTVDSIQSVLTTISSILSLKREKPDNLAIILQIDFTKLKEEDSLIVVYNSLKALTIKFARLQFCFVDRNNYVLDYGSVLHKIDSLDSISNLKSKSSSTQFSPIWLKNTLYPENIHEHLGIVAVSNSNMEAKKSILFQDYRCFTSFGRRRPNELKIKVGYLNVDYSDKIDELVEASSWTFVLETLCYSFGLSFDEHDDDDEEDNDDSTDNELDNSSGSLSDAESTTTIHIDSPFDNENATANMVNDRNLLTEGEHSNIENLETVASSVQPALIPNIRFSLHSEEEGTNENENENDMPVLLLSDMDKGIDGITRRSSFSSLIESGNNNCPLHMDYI
Assay: affinity purification with mass spectrometry; Ste5-Myc9 IP'd with 9E10 from 10 mg yeast whole cell extract (EY1775, cells without or with 50 nM α factor for 2 hours); 20 mM Tris-HCl pH 7.2, 125 mM potassium acetate, 0.1% Tween 20; Coomassie-stained SDS gel, 70 kDa band digested with trypsin, LC-MS/MS; ImageJ densitometry of the gel
Conditions: partners not purified

B1: Hsp70 Ssa1 (endogenous) (natural protein)
chain: not shown
notes: Hsp70 chaperone Ssa1 of S. cerevisiae; also called 70 kDa protein; band a; source: endogenous, S. cerevisiae EY1775 whole cell extract
ratio Ste5-Myc9:70 kDa Hsp70 (Coomassie densitometry), with α factor: 0.67
ratio Ste5-Myc9:70 kDa Hsp70 (Coomassie densitometry), without α factor: 1.45
